Results from US20120225055A1 (GlaxoSmithKline, published 2012).

Assays:
[1] = target: T1, human serum amyloid P component (SAP), purified (Homo sapiens, UniProt P02743 20-223); test: Biacore (BIAcoreX), human SAP covalently immobilised on the chip; mean and SD of 3 replicates
T1 construct: Immobilised directly, amine-coupled, captured on O-phosphoethanolamine or by sheep polyclonal antibody, depending on the assay; also called human SAP; native human SAP

[2] = target: T1, human serum amyloid P component (SAP), …; test: Biacore, human SAP captured on immobilised O-phosphoethanolamine (CM5 chip, calcium), bivalent analyte model
Procedure: (§1) O-phosphoethanolamine was immobilised on a Biacore CM5 chip by primary amine coupling in accordance with the manufacturer's instructions. Human SAP was then captured on the surface in the presence of calcium chloride, in order to replicate in the Biacore system in vitro, the precise orientation of SAP molecules bound to amyloid fibrils in vivo. Anti SAP antibodies were then passed over this surface at 256, 64, 16, 4, 1 nM and a binding sensorgrams obtained. Analysis was carried out at 25° C. using 4% BSA, 10 mM Tris, 140 mM NaCl, 2 mM CaCl₂, 0.05% surfactant P20, 0.02% Na N₃, pH 8.0 as running buffer. […] Data generated were double referenced with a buffer injection over the human SAP surface and analyzed using the bivalent analyte model in the Biacore T100 evaluation software.

[3] = target: T2, isolated pure human C-reactive protein (CRP) (human, UniProt P02741 19-224); test: western blot from SDS-PAGE
T2 construct: also called human CRP
T2 sequence (looked up): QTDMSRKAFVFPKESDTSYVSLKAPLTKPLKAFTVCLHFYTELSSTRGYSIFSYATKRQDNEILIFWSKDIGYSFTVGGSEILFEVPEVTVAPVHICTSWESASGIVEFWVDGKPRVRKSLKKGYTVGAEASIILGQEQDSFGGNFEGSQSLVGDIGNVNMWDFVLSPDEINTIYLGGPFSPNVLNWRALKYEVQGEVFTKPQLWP

[4] = target: T3, human SAP 1-140 fragment (chymotrypsin digestion in the absence of calcium) (Homo sapiens); test: western blot from SDS-PAGE
T3 construct: Tested in western blot from SDS-PAGE; also called residue 1-140 fragment
T3 chain: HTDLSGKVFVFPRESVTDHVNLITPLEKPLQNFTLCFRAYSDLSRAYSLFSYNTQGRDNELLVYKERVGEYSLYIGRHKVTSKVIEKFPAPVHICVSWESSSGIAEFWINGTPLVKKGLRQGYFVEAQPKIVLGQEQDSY

[5] = target: T4, human SAP N-terminal 1-158-homoserine lactone polypeptide (CNBr cleavage fragment) (Homo sapiens, position 159 converted from methionine to homoserine lactone); test: western blot from SDS-PAGE
T4 construct: Tested in western blot from SDS-PAGE; also called approximately 20 kD fragment
T4 chain: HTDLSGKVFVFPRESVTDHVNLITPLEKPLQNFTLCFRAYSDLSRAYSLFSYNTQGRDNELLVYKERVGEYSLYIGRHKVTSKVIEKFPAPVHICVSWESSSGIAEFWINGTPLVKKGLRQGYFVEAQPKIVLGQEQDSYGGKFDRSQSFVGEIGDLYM

[6] = target: T1, human serum amyloid P component (SAP), …; test: direct ELISA, human SAP coated at 5 µg/mL, detection with HRP rabbit anti-mouse IgG
Procedure: 1 μg/mL or 5 μg/mL human SAP was directly immobilised onto an ELISA plate and blocked with 1% BSA/TBS plus 0.05% TWEEN20. Anti-SAP antibodies from purified material were titrated across the plate. Bound antibody was detected by treatment with a horse-radish peroxidase (HRP)-conjugated rabbit-anti-mouse IgG antibody (Dako, P0260). The ELISA was developed using O-phenylenediamine dihydrochloride (OPD) peroxidase substrate (Sigma, P9187).

[7] = target: T1, human serum amyloid P component (SAP), …; test: Biacore, human SAP captured on immobilised O-phosphoethanolamine (CM5 chip, calcium), bivalent analyte model; kd outside the Biacore measurement range
Procedure: as §1

[8] = target: T1, human serum amyloid P component (SAP), …; test: Biacore (BIAcoreX), human SAP covalently immobilised on the chip; mean and SD of 3 replicates; human SAP covalently immobilised on the chip; mean of 3 replicates
[9] = target: T1, human serum amyloid P component (SAP), …; test: competition ELISA, human SAP coated at 5 µg/mL, constant SAP-E chimera (cSAP-E) as competitor, bound chimera detected with goat anti-human kappa light chain peroxidase conjugate
Description: A constant concentration of chimeric anti-SAP mAb was mixed with serial diluted (1:1) amounts of mouse anti-SAP mAbs. Plates were washed and the amount of chimeric antibody bound to the immobilised human SAP was detected using goat anti-human Kappa Light chain peroxidase conjugate (Sigma, A7164). The ELISA was developed using O-phenylenediamine dihydrochloride (OPD) peroxidase substrate (Sigma, P9187).

Kd [1]: 5 nM | koff [1]: 6e-05 s⁻¹ | kon [2]: 31500 M⁻¹ s⁻¹ | binding result [4]: binds | binding result [5]: binds | EC50 (read off the curve) [6]: ~0.04 µg/mL | koff [7]: < 1e-05 s⁻¹ | kon [8]: 20000 M⁻¹ s⁻¹ | IC50 (read off the curve) [9]: ~2 µg/mL
B1: SAP-E mouse monoclonal anti-human SAP antibody (antibody, mouse IgG2a, V domains shown)
VH: QASLQQSGTELVRSGASVKMSCKASGFTFATYNMHWIKQTPGQGLEWIGYIYPGDGNANYNQQFKGKATLTADTSSNTAYMQISSLTSEDSAVYFCARGDFDYDGGYYFDSWGQGTTLTVSS
VL: DIQMTQSPASLSASVGETVTITCRASENIYSYLAWYQQKQGRSPQLLVHNAKTLAEGVPSRVSGSGSGTHFSLKINGLQPEDFGNYYCQHHYGAPLTFGAGTKLELK
notes: also called Mouse SAP-E; murine SAP-E
binding result [3]: no binding (tested: 500 ng and 100 ng loaded)
